Test results as given in patent US20260000736A1, “PURIFIED LACTOFERRIN COMPOSITIONS AND METHODS OF USE” (Lactea Therapeutics LLC, priority 2023, published 2026).
“Also recorded” adds a separate entry of the source.

How the values were obtained:
E. coli 0157 [1] = experiment: Biofilm formation, crystal violet assay; format: cell-based; details: for Biofilm Inhibition, Replicate 1 / Biofilm Inhibition, Replicate 2 / Biofilm Inhibition, Replicate 3: 24 hours
Method: Lactoferrin was assessed for biofilm growth inhibition. To study the relative concentration dependent efficacy of Lactea-Lf and the Sigma Aldrich research standard Lactoferrin in inhibiting biofilm formation, Lf was added at concentrations ranging from 2 mg/mL to 0.31 mg/mL (2-fold serial dilution curve) to E. coli 0157 in LB seeded at 10∝CFU/mL and incubated for 37° C. for 24 hours. Lactea Lactoferrin (Lactea-Lf) was produced as described in the above examples. The biofilm was stained using a standard crystal violet assay. A quantification of the inhibition of biofilm formation (FIG. 18A) and an image of a representative plate (FIG. 18B) are shown.

lactoperoxidase (LPO) = experiment: Enzymatic colorimetric assay for lactoperoxidase (LPO) activity; format: biochemical; details: colorimetric peroxidase substrate
Source text: An enzymatic assay for lactoperoxidase (LPO) activity was developed utilizing a molecule which in the presence of peroxidase activity turns a blue color.

[2] = DSC of additional batches, ratio of apo to holo-Lactoferrin; format: physicochemical; details: 5 mg/mL, 30° C. to 100° C. range
Method: Additional batches of Lactea-Lf as described in the above examples and the relative ratio of apo to holo-Lactoferrin was assessed by Differential Scanning Calorimetry (DSC). Lactoferrin samples were loaded at 5 mg/mL into a NanoDSC (TI Instruments) and measured in the 30° C. to 100° C. range. […] It is likely that these peaks are smaller as the sample is highly impure or contains already denatured product.

E. coli 0157 [3] = experiment: Bacterial growth inhibition, OD600 after 16 h; format: cell-based; details: 1 mg/mL Lf, 16 h at 37° C.
Method: As an analytical standard for the assessment of Lactoferrin (Lf) activity, 1 mg/mL Lf was added to 10∝CFU/mL E. coli 0157 in LB and incubated for 16 h at 37° C. Lactea Lactoferrin (Lactea-Lf) was produced as described in the above examples. Assessed were three independent lots of Lactea-Lf, impure samples which were generated by co-eluting Lactoperoxidase and Lactoferrin (co-elution), samples with degradation products generated by eluting Lactoferrin from old milk which was left for three days (Degradation Products), and a Sigma Aldrich Lactoferrin L9507 (Research Standard). As shown in FIG. 16 and quantified in Table 5, in the Lactea-Lf lots assessed, less than 5% the total growth of bacteria was observed as assessed by OD600 relative to the growth of untreated bacteria under these conditions. In this case, co-elution samples were samples which have a detectable peak of LPO as observable in MALDI-TOF M/S or HPLC. Degradation Products had identifiable degradation peaks as observed in HPLC or DSC.

E. coli 0157 [4] = experiment: Bacterial growth timecourse, OD600; format: cell-based; details: 1 mg/mL; for Bacterial Growth Timecourse, Replicate 1 / Bacterial Growth Timecourse, Replicate 2 / Bacterial Growth Timecourse, Replicate 3: OD600 relative to no treatment control at 24 hours
Method: For a more detailed comparison of Lactea-Lf antimicrobial activity relative to the Sigma Aldrich Lactoferrin, Lactea-Lf and Sigma Aldrich Lactoferrin were incubated at 1 mg/mL with for E. coli 0157 in LB seeded at 10∝CFU/mL. […] Results were quantified and reported as a percent of the OD600 of the no treatment control at 24 hours for all timepoints.

SARS-CoV-2 = SARS-CoV-2 Cytopathic Effect (CPE) reduction assay in Vero E6 cells; format: cell-based; details: Vero E6 cells, MOI of 0.001, neutral red, three days post-infection
[5] = 10∝CFU/mL E. coli 0157 in LB, OD600 relative to untreated

B1: Sigma-Lf: Sigma Aldrich Lactoferrin L9507 (Research Standard) (protein, UniProt P24627 20-708, looked up)
Lactotransferrin: APRKNVRWCTISQPEWFKCRRWQWRMKKLGAPSITCVRRAFALECIRAIAEKKADAVTLDGGMVFEAGRDPYKLRPVAAEIYGTKESPQTHYYAVAVVKKGSNFQLDQLQGRKSCHTGLGRSAGWIIPMGILRPYLSWTESLEPLQGAVAKFFSASCVPCIDRQAYPNLCQLCKGEGENQCACSSREPYFGYSGAFKCLQDGAGDVAFVKETTVFENLPEKADRDQYELLCLNNSRAPVDAFKECHLAQVPSHAVVARSVDGKEDLIWKLLSKAQEKFGKNKSRSFQLFGSPPGQRDLLFKDSALGFLRIPSKVDSALYLGSRYLTTLKNLRETAEEVKARYTRVVWCAVGPEEQKKCQQWSQQSGQNVTCATASTTDDCIVLVLKGEADALNLDGGYIYTAGKCGLVPVLAENRKSSKHSSLDCVLRPTEGYLAVAVVKKANEGLTWNSLKDKKSCHTAVDRTAGWNIPMGLIVNQTGSCAFDEFFSQSCAPGADPKSRLCALCAGDDQGLDKCVPNSKEKYYGYTGAFRCLAEDVGDVAFVKNDTVWENTNGESTADWAKNLNREDFRLLCLDGTRKPVTEAQSCHLAVAPNHAVVSRSDRAAHVKQVLLHQQALFGKNGKNCPDKFCLFKSETKNLLFNDNTECLAKLGGRPTYEEYLGTEYVTAIANLKKCSTSPLLEACAFLTR
inhibition of biofilm formation, in words (E. coli 0157 [1]; E. coli 0157, 24 hours): only appears to demonstrate inhibition of biofilm in the low mg/mL range, but never completely eliminates biofilm formation
Biofilm Inhibition, Replicate 1 (E. coli 0157 [1]; [Lf] 0.031 mg/mL): 0.6588
Biofilm Inhibition, Replicate 2 (E. coli 0157 [1]; [Lf] 0.031 mg/mL): 0.9283
Biofilm Inhibition, Replicate 3 (E. coli 0157 [1]; [Lf] 0.031 mg/mL): 0.854
Biofilm Inhibition, Replicate 1 (E. coli 0157 [1]; [Lf] 0.063 mg/mL): 0.2439
Biofilm Inhibition, Replicate 2 (E. coli 0157 [1]; [Lf] 0.063 mg/mL): 0.1943
Biofilm Inhibition, Replicate 3 (E. coli 0157 [1]; [Lf] 0.063 mg/mL): 0.3058
Biofilm Inhibition, Replicate 1 (E. coli 0157 [1]; [Lf] 0.125 mg/mL): 0.1583
Biofilm Inhibition, Replicate 2 (E. coli 0157 [1]; [Lf] 0.125 mg/mL): 0.1464
Biofilm Inhibition, Replicate 3 (E. coli 0157 [1]; [Lf] 0.125 mg/mL): 0.5378
Biofilm Inhibition, Replicate 1 (E. coli 0157 [1]; [Lf] 0.25 mg/mL): 0.1929
Biofilm Inhibition, Replicate 2 (E. coli 0157 [1]; [Lf] 0.25 mg/mL): 0.2837
Biofilm Inhibition, Replicate 3 (E. coli 0157 [1]; [Lf] 0.25 mg/mL): 0.358
Biofilm Inhibition, Replicate 1 (E. coli 0157 [1]; [Lf] 0.5 mg/mL): 0.126
Biofilm Inhibition, Replicate 2 (E. coli 0157 [1]; [Lf] 0.5 mg/mL): 0.192
Biofilm Inhibition, Replicate 3 (E. coli 0157 [1]; [Lf] 0.5 mg/mL): 0.1942
Biofilm Inhibition, Replicate 1 (E. coli 0157 [1]; [Lf] 1 mg/mL): 0.05367
Biofilm Inhibition, Replicate 2 (E. coli 0157 [1]; [Lf] 1 mg/mL): 0.09846
Biofilm Inhibition, Replicate 3 (E. coli 0157 [1]; [Lf] 1 mg/mL): 0.1465
Biofilm Inhibition, Replicate 1 (E. coli 0157 [1]; [Lf] 2 mg/mL): 0.09652
Biofilm Inhibition, Replicate 2 (E. coli 0157 [1]; [Lf] 2 mg/mL): 0.03678
Biofilm Inhibition, Replicate 3 (E. coli 0157 [1]; [Lf] 2 mg/mL): 0.08427
LPO enzymatic activity (blue color reaction) (lactoperoxidase (LPO)): does not result in a positive enzymatic reaction
relative ratio of apo to holo-Lactoferrin, DSC peak pattern [2]: one lot was almost entirely holo-Lf and had two peaks in the holo-Lf range; also recorded: two faint peaks with slightly more holo-Lf than apo-Lf
Relative Bacterial Growth, Replicate 1 (E. coli 0157 [3]; [5]): 0.8089
Relative Bacterial Growth, Replicate 2 (E. coli 0157 [3]; [5]): 0.8162
Relative Bacterial Growth, Replicate 3 (E. coli 0157 [3]; [5]): 0.7726
antibacterial activity compared with other samples (E. coli 0157 [3]): less activity than any lot of co-elution or degraded product
time at which bacterial growth became observable / evident (E. coli 0157 [4]; E. coli 0157 in LB): 6 h
Bacterial Growth Timecourse, Replicate 1 (E. coli 0157 [4]; 3 h): 0.04197
Bacterial Growth Timecourse, Replicate 2 (E. coli 0157 [4]; 3 h): 0.0345
Bacterial Growth Timecourse, Replicate 3 (E. coli 0157 [4]; 3 h): 0.04414
Bacterial Growth Timecourse, Replicate 1 (E. coli 0157 [4]; 6 h): 0.6058
Bacterial Growth Timecourse, Replicate 2 (E. coli 0157 [4]; 6 h): 0.6264
Bacterial Growth Timecourse, Replicate 3 (E. coli 0157 [4]; 6 h): 0.6363
Bacterial Growth Timecourse, Replicate 1 (E. coli 0157 [4]; 9 h): 0.6012
Bacterial Growth Timecourse, Replicate 2 (E. coli 0157 [4]; 9 h): 0.6124
Bacterial Growth Timecourse, Replicate 3 (E. coli 0157 [4]; 9 h): 0.6341
Bacterial Growth Timecourse, Replicate 1 (E. coli 0157 [4]; 12 h): 0.6658
Bacterial Growth Timecourse, Replicate 2 (E. coli 0157 [4]; 12 h): 0.6702
Bacterial Growth Timecourse, Replicate 3 (E. coli 0157 [4]; 12 h): 0.6326
Bacterial Growth Timecourse, Replicate 1 (E. coli 0157 [4]; 15 h): 0.6543
Bacterial Growth Timecourse, Replicate 2 (E. coli 0157 [4]; 15 h): 0.6602
Bacterial Growth Timecourse, Replicate 3 (E. coli 0157 [4]; 15 h): 0.6251
Bacterial Growth Timecourse, Replicate 1 (E. coli 0157 [4]; 18 h): 0.6295
Bacterial Growth Timecourse, Replicate 2 (E. coli 0157 [4]; 18 h): 0.6201
Bacterial Growth Timecourse, Replicate 3 (E. coli 0157 [4]; 18 h): 0.599
Bacterial Growth Timecourse, Replicate 1 (E. coli 0157 [4]; 21 h): 0.6512
Bacterial Growth Timecourse, Replicate 2 (E. coli 0157 [4]; 21 h): 0.5981
Bacterial Growth Timecourse, Replicate 3 (E. coli 0157 [4]; 21 h): 0.5984
Bacterial Growth Timecourse, Replicate 1 (E. coli 0157 [4]; 24 h): 0.6668
Bacterial Growth Timecourse, Replicate 2 (E. coli 0157 [4]; 24 h): 0.6205
Bacterial Growth Timecourse, Replicate 3 (E. coli 0157 [4]; 24 h): 0.6407

B2: Lactoferrin (“Reagent”): reagent grade Lactoferrin, comparable research grade reference product (protein, UniProt P24627 20-708, looked up)
Lactotransferrin: B1 Lactotransferrin
EC50 (SARS-CoV-2): 140 nM
